According to the supplement of paper PMC7877785:
± gives the uncertainty stated by the source.

Assay: self-splicing fitness, log relative to wild type (ln ratio); higher = more splicing; Tetrahymena group I intron in knt gene, E. coli kanamycin selection, DiMSum; sequences stand for … in CUCUCU…GGAGGGAAAAGUUAUCAGGCAUGCACCUGGUAGCUAGUCUUUAAACCAAUAGAUUGCAUCGGUUUAAAAGGCAAGACCGUCAAAUUGCGGGAAAGGGGUCAACAGCCGUUCAGUACCAAGUCUCAGGGGAAACUUUGAGAUGGCCUUGCAAAGGGUAUGGUAAUAAGCUGACGGACAUGGUCCUAACCACGCAGCCAAGUCCUAAGUCAACAGAUCUUCUGUUGAUAUGGAUGCAGUUCACAGACUAAAUGUCGGUCGGGGAAGAUGUAUUCUUCUCAUAAGAUAUAGUCGGACCUCUCCUUAAUGGGAGCUAGCGGAUGAAGUGAUGCAACACUGGAGCCGCUGGGAACUAAUUUGUAUGCGAAAGUAUAUUGAUUAGUUUUGGAGUACUCGUGGUCG
Procedure, shortened: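 Six replicate transformations of E. coli BL21(DE3) with a pET-22b(+) library were grown overnight at 37°C or 30°C. The library randomised all eight P1ex-region intron nucleotides, the intron lying in the knt kanamycin-resistance gene, and plates were LB agar with or without 25 μg/mL kanamycin plus 100 μg/mL carbenicillin, 50 μM IPTG and 0.2% rhamnose. Pooled colonies were amplicon-sequenced on an Illumina HiSeq 2500, and fitness is the DiMSum error-weighted combination of wild-type-normalised replicate fold changes, kanamycin versus none.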

| Sequence | self-splicing fitness (ln) (30 °C) | self-splicing fitness (ln) (37 °C) |
| --- | --- | --- |
| CGAAAGCAAUAUUACGUGCA | -2.12 ± 0.12 | -1.13 ± 0.12 |
| CGAAAGCAAUAUUACGUGCC | -3.18 ± 0.17 | -1.95 ± 0.17 |
| CGAAAGCAAUAUUACGUGCG | -1.22 ± 0.076 | -0.524 ± 0.097 |
| CGACAGCAAUAUUACGAACC | -3.27 ± 0.27 | -0.556 ± 0.2 |
| CGACAGCAAUAUUACGAAUC | -4.11 ± 0.46 | -2.71 ± 0.34 |
| CGACAGCAAUAUUACGACAU | -2.444 ± 0.014 | -1.33 ± 0.033 |
| CGACAGCAAUAUUACGACCC | -1.31 ± 0.19 | 0.117 ± 0.23 |
| CGACAGCAAUAUUACGACCU | -1.56 ± 0.099 | 0.317 ± 0.11 |
| CGACAGCAAUAUUACGACUA | -2.15 ± 0.13 | 0.027 ± 0.092 |
| CGACAGCAAUAUUACGACUC | -2.83 ± 0.18 | -1.18 ± 0.15 |
| CGACAGCAAUAUUACGAGAA | – | -2.41 ± 0.23 |
| CGACAGCAAUAUUACGAGCU | -2.86 ± 0.15 | -2.17 ± 0.17 |
| CGACAGCAAUAUUACGAGGA | -3.91 ± 0.2 | -2.53 ± 0.18 |
| CGACAGCAAUAUUACGAGGG | -3.67 ± 0.13 | -2.99 ± 0.15 |
| CGACAGCAAUAUUACGAGUU | -2.98 ± 0.1 | -3.25 ± 0.15 |
| CGACAGCAAUAUUACGAUCU | -0.335 ± 0.1 | 0.552 ± 0.094 |
| CGACAGCAAUAUUACGCCAG | -1.73 ± 0.11 | -0.84 ± 0.13 |
| CGACAGCAAUAUUACGCGAG | -1.5 ± 0.16 | -2.32 ± 0.21 |
| CGACAGCAAUAUUACGCGGG | -2.71 ± 0.12 | -2.39 ± 0.15 |
| CGACAGCAAUAUUACGCGGU | -4.5 ± 0.15 | -2.85 ± 0.14 |
| CGACAGCAAUAUUACGCUCU | -1.69 ± 0.11 | -0.145 ± 0.11 |
| CGACAGCAAUAUUACGGAGA | -2.18 ± 0.15 | -3.29 ± 0.28 |
| CGACAGCAAUAUUACGGAGC | -2.83 ± 0.19 | -3.04 ± 0.25 |
| CGACAGCAAUAUUACGGGAC | -4.58 ± 0.26 | -1.71 ± 0.14 |
| CGACAGCAAUAUUACGGGGU | -4.03 ± 0.17 | -3.01 ± 0.17 |

| Sequence | self-splicing fitness (ln) (30 °C) | self-splicing fitness (ln) (37 °C) |
| --- | --- | --- |
| CGACAGCAAUAUUACGGGUC | -4.52 ± 0.32 | -3.14 ± 0.29 |
| CGACAGCAAUAUUACGUACG | -3.63 ± 0.21 | -2.92 ± 0.38 |
| CGACAGCAAUAUUACGUCAU | -3.41 ± 0.24 | -1.54 ± 0.14 |
| CGACAGCAAUAUUACGUCCG | -1.31 ± 0.12 | -1.04 ± 0.12 |
| CGACAGCAAUAUUACGUCUA | -0.367 ± 0.052 | 0.0477 ± 0.061 |
| CGACAGCAAUAUUACGUUCA | -0.308 ± 0.054 | 0.198 ± 0.087 |
| CGACAGCAAUAUUACGUUGA | -3.63 ± 0.15 | -1.85 ± 0.1 |
| CGAGAGCAAUAUUACGAACG | -2.48 ± 0.2 | -1.04 ± 0.21 |
| CGAGAGCAAUAUUACGACCA | -2.78 ± 0.37 | – |
| CGAGAGCAAUAUUACGAGAC | -2.64 ± 0.46 | – |
| CGAGAGCAAUAUUACGAGCG | -0.966 ± 0.11 | -1.72 ± 0.18 |
| CGAGAGCAAUAUUACGAGGG | -4.22 ± 0.31 | -3.16 ± 0.27 |
| CGAGAGCAAUAUUACGAUCC | -3.95 ± 0.46 | -2.36 ± 0.28 |
| CGAGAGCAAUAUUACGAUGC | – | -1.63 ± 0.35 |
| CGAGAGCAAUAUUACGCAGG | – | -1.63 ± 0.17 |
| CGAGAGCAAUAUUACGCCUU | -3.73 ± 0.43 | -1.07 ± 0.29 |
| CGAGAGCAAUAUUACGCGAU | -3.7 ± 0.48 | -1.04 ± 0.37 |
| CGAGAGCAAUAUUACGCUGA | -2.91 ± 0.44 | -0.634 ± 0.27 |
| CGAGAGCAAUAUUACGGAAG | -3.57 ± 0.28 | -2.54 ± 0.23 |
| CGAGAGCAAUAUUACGGGCU | -3.67 ± 0.22 | -2.18 ± 0.28 |
| CGAGAGCAAUAUUACGGGGA | -3.24 ± 0.47 | -1.74 ± 0.31 |
| CGAGAGCAAUAUUACGGUAU | -3.41 ± 0.28 | -2.88 ± 0.29 |
| CGAGAGCAAUAUUACGGUGC | -3.73 ± 0.25 | -3.43 ± 0.46 |
| CGAGAGCAAUAUUACGUCAA | -3.22 ± 0.21 | -2.4 ± 0.27 |
